Measured values: patent US20150344570A1 (published 2015)

T1: FcγRIIa H (FcγRIIa, allotype with His at position 131), extracellular domain with C-terminal His tag (human, UniProt P12318 34-217)
T1 construct: extracellular domain; also called FcgRIIa H; 2aH; not shown: His tag at the C terminus
T1 sequence (looked up): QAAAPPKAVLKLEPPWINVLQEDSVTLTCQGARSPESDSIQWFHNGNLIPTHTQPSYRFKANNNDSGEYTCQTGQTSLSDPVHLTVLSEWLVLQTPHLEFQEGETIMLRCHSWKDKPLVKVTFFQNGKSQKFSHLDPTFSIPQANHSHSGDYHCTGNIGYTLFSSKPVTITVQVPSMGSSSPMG

T2: FcγRIIb, extracellular domain with C-terminal His tag (human, UniProt P31994 43-217)
T2 construct: extracellular domain; also called FcgRIIb; 2b; not shown: His tag at the C terminus
T2 sequence (looked up): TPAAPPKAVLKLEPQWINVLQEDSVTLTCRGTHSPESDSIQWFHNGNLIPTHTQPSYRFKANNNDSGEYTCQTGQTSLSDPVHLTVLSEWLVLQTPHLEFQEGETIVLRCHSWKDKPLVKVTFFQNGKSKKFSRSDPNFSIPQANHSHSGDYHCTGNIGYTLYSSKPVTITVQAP

B1: GpH7-A5/GpH7-B3 variant A327_03V/GpL16-k0 (antibody, human IgG1, kappa)
heavy 1: not shown
heavy 2: not shown
light: DIVMTQSPLSLPVTPGEPASISCQASESLVHSNRNTYLHWYLQKPGQSPQLLIYKVSNRFSGVPDRFSGSGSGTDFTLKISRVEAEDVGVYYCSQNTHVPPTFGQGTKVEIERTVAAPSVFIFPPSDEQLKSGTASVVCLLNNFYPREAKVQWKVDNALQSGNSQESVTEQDSKDSTYSLSSTLTLSKADYEKHKVYACEVTHQGLSSPVTKSFNRGEC
notes: Heterodimerized anti-glypican-3 IgG1; mutation in one H chain only; also called He Ab
B2: GpH7-A5/GpH7-B3 variant A327_07I/GpL16-k0 (antibody, human IgG1, kappa)
heavy 1: not shown
heavy 2: not shown
light: B1 light
notes: as for B1
B3: GpH7-A5/GpH7-B3 variant A327_08L/GpL16-k0 (antibody, human IgG1, kappa)
heavy 1: not shown
heavy 2: not shown
light: B1 light
notes: as for B1
B4: GpH7-A5/GpH7-B3 variant L328_04F/GpL16-k0 (antibody, human IgG1, kappa)
heavy 1: not shown
heavy 2: not shown
light: B1 light
notes: as for B1
B5: GpH7-A5/GpH7-B3 variant L328_07I/GpL16-k0 (antibody, human IgG1, kappa)
heavy 1: not shown
heavy 2: not shown
light: B1 light
notes: as for B1
B6: GpH7-A5/GpH7-B3 variant A330_05P/GpL16-k0 (antibody, human IgG1, kappa)
heavy 1: not shown
heavy 2: not shown
light: B1 light
notes: as for B1
B7: GpH7-A5/GpH7-B3 variant L328_20W/GpL16-k0 (antibody, human IgG1, kappa)
heavy 1: not shown
heavy 2: not shown
light: B1 light
notes: as for B1
B8: GpH7-A5/GpH7-B3 variant L328_10E/GpL16-k0 (antibody, human IgG1, kappa)
heavy 1: not shown
heavy 2: not shown
light: B1 light
notes: as for B1
B9: GpH7-A5/GpH7-B3 variant I332_10E/GpL16-k0 (antibody, human IgG1, kappa)
heavy 1: not shown
heavy 2: not shown
light: B1 light
notes: as for B1

biological target: T1, FcγRIIa H (FcγRIIa, allotype with His …); test: SPR (Biacore); He/Con_2aH divided by He/Con_2b (FcγRIIb)

| He_2aH/2b (IIaH/IIb) | Binder |
| --- | --- |
| 0.54 ratio | B1 |
| 0.46 ratio | B2 |
| 0.74 ratio | B3 |
| 0.33 ratio | B4 |
| 0.59 ratio | B5 |
| 0.63 ratio | B6 |
| 0.48 ratio | B7 |
| 0.32 ratio | B8 |
| 0.76 ratio | B9 |

biological target: T1, FcγRIIa H (FcγRIIa, allotype with His …); test: SPR (Biacore), relative binding vs GpH7-A5/GpH7-B3/GpL16-k0

| He/Con_2aH | Binder |
| --- | --- |
| 51 % of HeCon Ab (=100) | B1 |
| 58.4 % of HeCon Ab (=100) | B2 |
| 46.9 % of HeCon Ab (=100) | B3 |
| 71.7 % of HeCon Ab (=100) | B4 |
| 93.9 % of HeCon Ab (=100) | B5 |
| 85.7 % of HeCon Ab (=100) | B6 |
| 113 % of HeCon Ab (=100) | B7 |
| 55.5 % of HeCon Ab (=100) | B8 |
| 108 % of HeCon Ab (=100) | B9 |

biological target: T2, FcγRIIb, extracellular domain with …; test: as above

| He/Con_2b | Binder |
| --- | --- |
| 94.7 % of HeCon Ab (=100) | B1 |
| 127 % of HeCon Ab (=100) | B2 |
| 63.1 % of HeCon Ab (=100) | B3 |
| 219 % of HeCon Ab (=100) | B4 |
| 160 % of HeCon Ab (=100) | B5 |
| 137 % of HeCon Ab (=100) | B6 |
| 235 % of HeCon Ab (=100) | B7 |
| 172 % of HeCon Ab (=100) | B8 |
| 142 % of HeCon Ab (=100) | B9 |
